Experimental data taken from patent US20240336649A1 (MIT, published 2024).

How the values were obtained:
[1] = molecular target: the molecule itself; assay: EMSA with a 22 bp double-stranded E-box DNA probe. This is an indirect sign: the gel shows DNA binding, and the filing reads the missing shift as missing homodimerisation.
Description: (§1) The three synthetic analogs 10, 11, and 12 can form non-covalent dimers and bind to the target E-box DNA (5′-[…]-3′). […] However, it is not possible to determine which dimeric species form in a solution containing two different monomers. For instance, upon mixing Max (11) and Omomyc (12), three different dimers (Max/Max, Omomyc/Omomyc and Max/Omomyc) can form and potentially bind to DNA (FIG. 18). To assess the activity of these protein complexes in a reliable manner, access to well-defined covalent protein dimers is critical.

[2] = molecular target: the molecule itself; assay: non-covalent homodimer inferred from EMSA with E-box DNA (Omomyc+Omomyc)
Description: as §1

Row | Protein | binding result [1] | binding result [2]
1 | Myc analog 10 (synthetic Myc monomer with a C-terminal cysteine) (other, also called Myc 10) NVKRRTHNVLERQRRNELKRSFFALRDQIPELENNEKAPKVVILKKATAYILSVQAEEQKLISEEDLLRKRREQLKHKLEQLGGC | no binding | –
2 | Omomyc analog 12 (synthetic Omomyc monomer with a C-terminal cysteine) (other, Artificial mini-protein; the structure of 12 is in a drawing; also called Omomyc 12; Omomyc (12)) MATEENVKRRTHNVLERQRRNELKRSFFALRDQIPELENNEKAPKVVILKKATAYILSVQAETQKLISEIDLLRKQNEQLKHKLEQLRNSC | – | binds
